Data as given in US20150344544A1 (ACADEMIA SINICA, published 2015).

T1: FcγRIIa (UniProt P12318 34-217, limits assumed)
T1 construct: Used in ELISA; construct not described
T1 sequence (looked up): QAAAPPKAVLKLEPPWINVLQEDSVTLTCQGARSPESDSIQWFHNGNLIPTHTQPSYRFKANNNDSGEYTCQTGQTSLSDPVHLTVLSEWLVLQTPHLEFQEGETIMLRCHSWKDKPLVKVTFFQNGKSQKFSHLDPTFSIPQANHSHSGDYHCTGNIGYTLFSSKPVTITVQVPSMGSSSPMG

T2: FcγRIIb (UniProt P31994 43-217, limits assumed)
T2 construct: Used in ELISA; construct not described
T2 sequence (looked up): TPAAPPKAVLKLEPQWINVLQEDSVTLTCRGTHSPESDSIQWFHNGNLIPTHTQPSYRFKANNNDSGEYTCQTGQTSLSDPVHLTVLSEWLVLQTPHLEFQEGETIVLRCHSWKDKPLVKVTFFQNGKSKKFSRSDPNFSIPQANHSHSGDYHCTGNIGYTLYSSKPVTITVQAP

B1: Rituximab (antibody, human IgG1, kappa)
heavy: not shown
light: QIVLSQSPAILSASPGEKVTMTCRASSSVSYIHWFQQKPGSSPKPWIYATSNLASGVPVRFSGSGSGTSYSLTISRVEAEDAATYYCQQWTSNPPTFGGGTKLEIKRTVAAPSVFIFPPSDEQLKSGTASVVCLLNNFYPREAKVQWKVDNALQSGNSQESVTEQDSKDSTYSLSSTLTLSKADYEKHKVYACEVTHQGLSSPVTKSFNRGEC
notes: Commercial IgG1 with its native heterogeneous Fc glycans; also called Rituxan; Roche-Rituximab
B2: G6 glycoengineered Rituximab (antibody, human IgG1, kappa)
heavy: not shown
light: B1 light
modifications: homogeneous afucosylated Fc N-glycan (Asn-297): GalGlcNAc2Man3GlcNAc2
notes: IgG1; also called anti-CD20 GAb106
B3: 2,6-NSCT-Rituximab (antibody, human IgG1, kappa)
heavy: not shown
light: B1 light
modifications: homogeneous afucosylated Fc N-glycan (Asn-297): Sia2(α2-6)Gal2GlcNAc2Man3GlcNAc2
notes: also called anti-CD20 GAb101
B4: mono-GlcNAc Rituximab (antibody, human IgG1, kappa)
heavy: not shown
light: B1 light
modifications: single GlcNAc (defucosylated) at the Fc N-glycosylation site (Asn-297)
notes: IgG1; made from Rituximab with fucosidase BfFucH and an endoglycosidase; also called N-Rituximab
B5: 2,3-NSCT-Rituximab (antibody, human IgG1, kappa)
heavy: not shown
light: B1 light
modifications: homogeneous afucosylated Fc N-glycan (Asn-297), 2,3-sialylated: Sia2(α2-3)Gal2GlcNAc2Man3GlcNAc2
B6: G1 glycoengineered Rituximab (antibody, human IgG1, kappa)
heavy: not shown
light: B1 light
modifications: homogeneous afucosylated Fc N-glycan (Asn-297): Gal2GlcNAc2Man3GlcNAc2
notes: IgG1; also called anti-CD20 GAb104
B7: G7 glycoengineered Rituximab (antibody, human IgG1, kappa)
heavy: not shown
light: B1 light
modifications: homogeneous afucosylated Fc N-glycan (Asn-297): Man3GlcNAc2
notes: IgG1; also called anti-CD20 GAb111
B8: G9 glycoengineered Rituximab (antibody, human IgG1, kappa)
heavy: not shown
light: B1 light
modifications: homogeneous afucosylated bisected Fc N-glycan (Asn-297): GlcNAc3Man3GlcNAc2
notes: IgG1; bisected glycan; also called anti-CD20 GAb107
B9: G3 glycoengineered Rituximab (antibody, human IgG1, kappa)
heavy: not shown
light: B1 light
modifications: homogeneous afucosylated Fc N-glycan (Asn-297): GlcNAcMan3GlcNAc2
notes: IgG1; also called anti-CD20 GAb109
B10: G8 glycoengineered Rituximab (antibody, human IgG1, kappa)
heavy: not shown
light: B1 light
modifications: homogeneous afucosylated Fc N-glycan (Asn-297): GlcNAcMan3GlcNAc2
notes: IgG1; also called anti-CD20 GAb110

Molecular target: T3, FcγRIIIa (UniProt P08637 17-208, limits assumed)
T3 construct: Soluble receptor used in ELISA and SPR; source and construct not described; also called FcRIIIA
Experiment: SPR

T3 sequence (P08637 17-208 limits assumed): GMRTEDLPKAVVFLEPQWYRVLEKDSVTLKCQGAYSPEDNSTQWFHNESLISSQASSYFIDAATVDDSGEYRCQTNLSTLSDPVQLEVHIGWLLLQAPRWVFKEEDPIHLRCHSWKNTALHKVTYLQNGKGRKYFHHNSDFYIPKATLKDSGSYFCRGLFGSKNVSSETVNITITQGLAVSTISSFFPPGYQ

| Binder | Kd |
| --- | --- |
| B1 | 100 nM |
| B2 | 7 to 30 nM |

Molecular target: T3, FcγRIIIa
Experiment: ELISA

| Binder | EC50 |
| --- | --- |
| B1 | 6.2 to 9 nM |
| B3 | 0.24 to 0.27 nM |
| B4 | 36.3 nM |

Molecular target: T1, FcγRIIa
Experiment: ELISA

| Binder | EC50 |
| --- | --- |
| B1 | 5.4 nM |
| B5 | 16.5 nM |
| B3 | 3 nM |

Molecular target: T4, FcγRI (UniProt P12314 16-288, limits assumed)
T4 construct: Used in ELISA; construct not described
Experiment: ELISA

T4 sequence (P12314 16-288 limits assumed): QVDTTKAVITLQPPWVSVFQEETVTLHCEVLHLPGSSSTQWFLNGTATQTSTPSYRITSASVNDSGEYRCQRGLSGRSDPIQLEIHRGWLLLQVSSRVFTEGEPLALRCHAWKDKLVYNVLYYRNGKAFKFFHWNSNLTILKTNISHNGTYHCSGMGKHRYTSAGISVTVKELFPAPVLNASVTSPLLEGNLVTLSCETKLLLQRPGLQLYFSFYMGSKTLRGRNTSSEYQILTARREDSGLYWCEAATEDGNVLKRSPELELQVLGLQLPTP

| Binder | EC50 |
| --- | --- |
| B1 | 0.19 nM |
| B3 | 0.23 nM |
| B4 | 0.85 nM |

Molecular target: T2, FcγRIIb
Experiment: ELISA

| Binder | EC50 |
| --- | --- |
| B1 | 0.51 nM |
| B5 | 0.53 nM |
| B3 | 0.28 nM |
| B4 | 0.32 nM |

Molecular target: T5, C1q (UniProt P02745 23-245; P02746 28-253; P02747 29-245)
T5 construct: Complement component C1q used in ELISA; source not described
Experiment: ELISA

T5 sequence (P02745 23-245 limits assumed, chain 1 of 3): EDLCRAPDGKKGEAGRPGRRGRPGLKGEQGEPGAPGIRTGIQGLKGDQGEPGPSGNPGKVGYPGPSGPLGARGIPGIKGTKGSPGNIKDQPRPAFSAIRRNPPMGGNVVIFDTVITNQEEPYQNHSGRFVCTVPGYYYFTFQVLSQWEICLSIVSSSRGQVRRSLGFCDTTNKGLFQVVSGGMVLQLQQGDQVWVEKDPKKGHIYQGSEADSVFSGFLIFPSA
T5 sequence (P02746 28-253 limits assumed, chain 2 of 3): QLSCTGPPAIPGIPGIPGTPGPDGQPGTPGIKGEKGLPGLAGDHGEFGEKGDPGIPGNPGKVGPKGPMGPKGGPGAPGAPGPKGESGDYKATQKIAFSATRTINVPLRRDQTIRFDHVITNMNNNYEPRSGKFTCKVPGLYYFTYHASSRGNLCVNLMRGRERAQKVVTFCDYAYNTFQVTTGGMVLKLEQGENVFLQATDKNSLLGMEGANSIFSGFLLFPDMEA
T5 sequence (P02747 29-245 limits assumed, chain 3 of 3): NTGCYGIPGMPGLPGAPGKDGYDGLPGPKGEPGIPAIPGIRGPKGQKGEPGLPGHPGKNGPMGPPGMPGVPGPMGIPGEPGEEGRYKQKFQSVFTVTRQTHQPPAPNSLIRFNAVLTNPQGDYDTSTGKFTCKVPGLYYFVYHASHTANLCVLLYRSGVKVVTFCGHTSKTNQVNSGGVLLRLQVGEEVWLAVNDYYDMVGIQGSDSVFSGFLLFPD

| Binder | EC50 |
| --- | --- |
| B1 | 6.5 nM |
| B3 | 8 nM |

Molecular target: T3, FcγRIIIa
Experiment: cell-based or functional assay

| Binder | EC50 (ug/ml), PBMC mediated ADCC on Raji cells | EC50 (ug/ml), PBMC mediated ADCC on Ramos cells | EC50 (ug/ml), PBMC mediated ADCC on SKW6.4 cells |
| --- | --- | --- | --- |
| B1 | 0.319 µg/mL | 4.38 µg/mL | 2.07 µg/mL |
| B5 | 0.086 µg/mL | 1.45 µg/mL | 1.22 µg/mL |
| B3 | 0.022 µg/mL | 0.377 µg/mL | 0.276 µg/mL |

Molecular target: T5, C1q
Experiment: cell-based or functional assay

| Binder | EC50 (ug/ml), CDC assay on Ramos cells, FACS |
| --- | --- |
| B1 | 0.033 µg/mL |
| B5 | 0.086 µg/mL |
| B3 | 0.039 µg/mL |

Molecular target: T3, FcγRIIIa
Experiment: SPR; commercial Rituxan, not glycoengineered (reference)

| Binder | Kd |
| --- | --- |
| B1 | ≤ 300 nM |

Molecular target: T3, FcγRIIIa
Experiment: SPR, antibody captured with Human Fab capture kit, single cycle kinetics
Source text: Analyzed antibodies were captured by means of the Human Fab capture kit and detected with the single cycle kinetic method.

| Binder | Kd |
| --- | --- |
| B3 | 8.28 nM |
| B6 | 9.33 nM |
| B7 | 62.7 nM |
| B8 | 26.2 nM |
| B9 | 83.6 nM |
| B10 | 120 nM |
| B2 | 27.2 nM |
